In US20100074892A1:

Molecular target: recombinant anthrax protective antigen (PA) (Bacillus anthracis) (UniProt P13423)
Assay: SPR (Biacore)

Sequence of recombinant anthrax protective antigen (PA) (Bacillus anthracis) (P13423 30-764 limits assumed): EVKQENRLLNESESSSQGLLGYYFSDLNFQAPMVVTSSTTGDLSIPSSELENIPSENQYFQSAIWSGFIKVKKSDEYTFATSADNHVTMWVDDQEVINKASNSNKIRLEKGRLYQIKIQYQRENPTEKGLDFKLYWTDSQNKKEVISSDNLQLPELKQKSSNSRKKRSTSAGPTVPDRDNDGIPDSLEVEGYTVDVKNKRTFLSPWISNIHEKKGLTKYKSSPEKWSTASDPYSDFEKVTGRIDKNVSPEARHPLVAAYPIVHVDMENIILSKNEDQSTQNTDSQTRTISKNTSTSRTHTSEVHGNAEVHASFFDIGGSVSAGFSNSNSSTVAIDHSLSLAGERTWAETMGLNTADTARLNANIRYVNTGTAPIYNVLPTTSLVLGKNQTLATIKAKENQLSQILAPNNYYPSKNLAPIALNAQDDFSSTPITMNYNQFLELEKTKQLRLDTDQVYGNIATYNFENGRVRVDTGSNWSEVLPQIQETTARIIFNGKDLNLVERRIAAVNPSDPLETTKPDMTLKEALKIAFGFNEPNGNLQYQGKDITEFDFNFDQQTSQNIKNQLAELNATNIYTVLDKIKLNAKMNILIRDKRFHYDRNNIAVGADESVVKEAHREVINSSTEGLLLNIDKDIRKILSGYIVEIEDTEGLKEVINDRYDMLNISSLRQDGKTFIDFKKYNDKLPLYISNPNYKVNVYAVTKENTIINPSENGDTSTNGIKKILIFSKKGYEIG

Q: With mouse anti-PA monoclonal antibody 14B7 as the substance, how does the Kd read?
A: 4 nM
